Data taken from patent publication US20170260266A1.
Values joined by “and” are separate entries in the source; they are usually repeats but may differ in a detail not shown here. Equal values may be shown once.

Columns and labels:
[1] = biological target: full length (mature) cynomolgus monkey TSLP, recombinant (cynomolgus monkey); assay: ELISA RBA, geometric mean
[2] = biological target: full length (mature) cynomolgus monkey TSLP, recombinant (cynomolgus monkey); assay: cell-based or functional assay
[3] = biological target: full length (mature) cynomolgus monkey TSLP, recombinant (cynomolgus monkey); assay: SPR, biotinylated TSLP on SA chip; value excluding 1000 nM concentration
[4] = biological target: full length (mature) cynomolgus monkey TSLP, recombinant (cynomolgus monkey); assay: SPR, biotinylated TSLP on SA chip; all concentrations (footnote 2)
[5] = biological target: full length (mature) cynomolgus monkey TSLP, recombinant (cynomolgus monkey); assay: SPR, biotinylated TSLP on SA chip (Biacore 4000)
[6] = biological target: full length (mature) cynomolgus monkey TSLP, recombinant (cynomolgus monkey); assay: RBA, geometric mean (n = 2)
[7] = biological target: pre-existing human anti-VK (HAVK) antibodies; assay: MSD bridging immunoassay: biotinylated and ruthenylated dAb cross-linked by antibodies in 5% serum of healthy subjects; rate over donors
[8] = biological target: full length (mature) cynomolgus monkey TSLP, recombinant (cynomolgus monkey); assay: SPR with biotinylated TSLP; mean of two experiments

B1: DOM30h-440-57 (protein)
VL: DIQMTQSPSSLSASVGDRVTITCRASRPIRNWLDWYQQKPGKAPELLIWGASHLQSGVPSRFSGSGSGTDFTLTISSLQPEDFATYYCMQIGDDPVTFGQGTKVEIKR
IC50 [1]: 0.36 nM | pSTAT5 assay in SW756 cells, Geometric Mean IC50 [2]: 1.6 nM | Kd [3]: 1.92 nM | Kd [4]: 4.95 nM

B2: DOM30h-440-58 (protein)
VL: DIQMTQSPSSLSASVGDRVTITCRASRPIRNWLDWYQQKPGKAPKLLIWGASHLQSGVPSRFSGSGSGTDFTLTISSLQPEDFATYYCLQIADDPVTFGQGTKVEIKR
IC50 [1]: 0.21 nM | pSTAT5 assay in SW756 cells, Geometric Mean IC50 [2]: 3.43 nM | Kd [5]: 3.42 nM

B3: DOM30h-440-60 (protein)
VL: DIQMTQSPSSLSASVGDRVTITCRASRPIRNWLDWYQQKPGKAPKLLIWGASHLQSGVPSRFSGSGSGTDFTLTISSLQPEDFATYYCIQFGEDPVTFGQGTKVEIKR
IC50 [1]: 2.65 nM | pSTAT5 assay in SW756 cells, Geometric Mean IC50 [2]: 11.2 nM | Kd [5]: 7.81 nM

B4: DOM30h-440-63 (protein)
VL: DIQMTQSPSSLSASVGDRVTITCRASRPIRNWLDWYQQKPGKAPKLLIWGASHLQSGVPSRFSGSGSGTDFTLTISSLQPEDFATYYCMQIGSDPVTFGQGTKVEIKR
IC50 [1]: 0.83 nM | pSTAT5 assay in SW756 cells, Geometric Mean IC50 [2]: 2.4 nM | Kd [5]: 5.98 nM

B5: DOM30h-440-64 (protein)
VL: DIQMTQSPSSLSASVGDRVTITCRASRPIRNWLDWYQQKPGKAPKLLIWGASHLQSGVPSRFSGSGSGTDFTLTISSLQPEDFATYYCLQIGEDPVTFGQGTKVEIKR
IC50 [1]: 0.87 nM | pSTAT5 assay in SW756 cells, Geometric Mean IC50 [2]: 3.36 nM | Kd [5]: 4.29 nM

B6: DOM30h-440-53 (protein)
VL: DIQMTQSPSSLSASVGDRVTITCRASRPIRNWLDWYQQKPGKAPKLLIWGASHLQSGVPSRFSGSGSGTDFTLTISSLQPEDFATYYCLQVGEDPVTFGQGTKVEIKR
IC50 [1]: 1.3 nM | pSTAT5 assay in SW756 cells, Geometric Mean IC50 [2]: 7.28 nM | Kd [5]: 5.79 nM

B7: DOM30h-440-65 (protein)
VL: DIQMTQSPSSLSASVGDRVTITCRASRPIRNWLDWYQQKPGKAPKLLIWGASHLQSGVPSRFSGSGSGTDFTLTISSLQPEDFATYYCMQIGEDPVTFGQGTKVEIKR
IC50 [1]: 0.29 nM | pSTAT5 assay in SW756 cells, Geometric Mean IC50 [2]: 3.8 nM | Kd [5]: 3.11 nM

B8: DOM30h-440-81/86 (protein)
VL: DIQMTQSPSSLSASVGDRVTITCRASRPIRNWLDWYQQKPGKAPKLLIWGASHLQSGVPSRFSGSGSGTDFTLTISSLQPEDFATYYCVQIGEDPVTFGQGTKVEIK
Inhibition of TSLP-induced pSTAT5 in SW756 cells, Geometric Mean IC50 (n = 5) [2]: 4 nM | IC50 [6]: 2.05 nM | frequency of sera giving a positive signal (above the assay cutpoint) [7]: 6.7% | Kd [8]: 0.511 nM and 0.51 nM | koff [8]: 0.000774 s⁻¹ | kon [8]: 1.62e+06 M⁻¹ s⁻¹

B9: DOM30h-440-54 (protein)
VL: DIQMTQSPSSLSASVGDRVTITCRASRPIRNWLDWYQQKPGKAPKLLIWGASHLQSGVPSRFSGSGSGTDFTLTISSLQPEDFATYYCWQLAFDPTTFGQGTKVEIKR
IC50 [1]: 0.67 nM | pSTAT5 assay in SW756 cells, Geometric Mean IC50 [2]: 2.45 nM | Kd [5]: 6.24 nM

B10: DOM30h-440-55 (protein)
VL: DIQMTQSPSSLSASVGDRVTITCRASRPIRNWLDWYQQKPGKAPKLLIWGASHLQSGVPSRFSGSGSGTDFTLTISSLQPEDFATYYCVQIGEDPVTFGQGTKVEIKR
IC50 [1]: 0.55 nM | pSTAT5 assay in SW756 cells, Geometric Mean IC50 [2]: 3.12 nM | Kd [5]: 1.61 nM

B11: DOM30h-440-56 (protein)
VL: DIQMTQSPSSLSASVGDRVTITCRASRPIRNWLDWYQQKPGKAPKLLIWGASHLQSGVPSRFSGSGSGTDFTLTVSSLQPEDFATYYCMQIGEDPVTFGQGTKVEIKR
IC50 [1]: 0.55 nM | pSTAT5 assay in SW756 cells, Geometric Mean IC50 [2]: 4.74 nM | Kd [5]: 2.97 nM
